# Columns and labels:
# [1] = target: T1, human OX40 (TNFRSF4, CD134) on cells (human, UniProt P43489 29-277); assay: cell-based or functional assay
# T1 sequence: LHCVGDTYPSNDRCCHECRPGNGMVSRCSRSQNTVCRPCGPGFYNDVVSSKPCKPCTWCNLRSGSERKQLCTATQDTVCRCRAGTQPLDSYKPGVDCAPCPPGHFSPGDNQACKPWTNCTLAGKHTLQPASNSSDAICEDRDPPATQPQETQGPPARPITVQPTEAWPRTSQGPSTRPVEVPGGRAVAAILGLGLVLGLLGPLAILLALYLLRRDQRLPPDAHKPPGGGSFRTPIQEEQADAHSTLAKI
# [2] = target: T2, Human CD32a (167 Arg), Sino Biological 10374-H08H (human, UniProt P12318 34-218); assay: SPR Biacore 8K+, receptor captured by anti-His, antibody as analyte
# T2 construct: also called FcγRIIa167R
# T2 sequence (looked up): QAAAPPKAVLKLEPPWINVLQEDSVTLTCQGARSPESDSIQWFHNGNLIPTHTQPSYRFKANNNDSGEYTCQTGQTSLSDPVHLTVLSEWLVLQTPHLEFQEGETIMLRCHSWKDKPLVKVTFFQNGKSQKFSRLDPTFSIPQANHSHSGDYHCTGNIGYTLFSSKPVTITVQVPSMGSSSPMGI
# [3] = target: T3, Human CD16a (F176V), Sino Biological 10389-H08H1 (human, UniProt P08637 17-208); assay: as above
# T3 construct: also called FcγRIIIa176V
# T3 sequence (P08637 17-208 F176V limits assumed): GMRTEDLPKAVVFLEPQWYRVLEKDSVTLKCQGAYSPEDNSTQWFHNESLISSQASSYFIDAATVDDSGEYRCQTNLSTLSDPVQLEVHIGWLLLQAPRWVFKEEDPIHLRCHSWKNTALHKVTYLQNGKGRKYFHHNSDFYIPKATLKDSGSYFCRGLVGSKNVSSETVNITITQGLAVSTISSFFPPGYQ
# [4] = target: T4, Human CD32a (167 His), Sino Biological 10374-H08H1 (human, UniProt P12318 34-218); assay: as above
# T4 construct: also called FcγRIIa167H
# T4 sequence (looked up): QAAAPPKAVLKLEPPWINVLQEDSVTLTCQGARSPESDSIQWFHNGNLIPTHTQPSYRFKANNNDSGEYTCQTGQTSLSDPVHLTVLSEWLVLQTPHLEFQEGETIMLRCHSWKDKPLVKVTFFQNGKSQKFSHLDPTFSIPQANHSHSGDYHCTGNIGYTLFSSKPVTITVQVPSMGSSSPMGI
# [5] = target: T5, Human CD16b (NA2 allotype), Sino Biological 11046-H08H (human, UniProt O75015 17-200); assay: as above
# T5 construct: also called FcγRIIIb
# T5 sequence (O75015 17-200 N65S limits assumed): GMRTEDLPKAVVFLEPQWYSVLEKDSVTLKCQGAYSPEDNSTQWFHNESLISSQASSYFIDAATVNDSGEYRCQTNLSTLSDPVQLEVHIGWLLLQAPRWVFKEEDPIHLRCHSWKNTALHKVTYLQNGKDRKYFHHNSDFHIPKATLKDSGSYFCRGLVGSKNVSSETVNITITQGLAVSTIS
# [6] = target: T6, Human CD16a (176F), Sino Biological 10389-H08H (human, UniProt P08637 17-208); assay: as above
# T6 construct: also called FcγRIIIa176F
# T6 sequence (P08637 17-208 limits assumed): as the sequence (P08637 17-208 F176V limits assumed) above, with V160F counted along it
# [7] = target: T7, Human CD32b, Sino Biological 10259-H08H (human, UniProt P31994 43-217); assay: as above
# T7 construct: also called FcγRIIb
# T7 sequence (looked up): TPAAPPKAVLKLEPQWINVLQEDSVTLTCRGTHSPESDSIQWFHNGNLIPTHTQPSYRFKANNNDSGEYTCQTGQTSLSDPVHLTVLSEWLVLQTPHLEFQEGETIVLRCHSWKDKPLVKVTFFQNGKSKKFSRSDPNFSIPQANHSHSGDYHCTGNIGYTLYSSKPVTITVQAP
# [8] = target: Human CD64 (FcγRI), Sino Biological 10256-H08H (human, UniProt P12314 16-288); assay: as above
# Human CD64 (FcγRI), Sino Biological 10256-H08H, sequence (P12314 16-288 limits assumed): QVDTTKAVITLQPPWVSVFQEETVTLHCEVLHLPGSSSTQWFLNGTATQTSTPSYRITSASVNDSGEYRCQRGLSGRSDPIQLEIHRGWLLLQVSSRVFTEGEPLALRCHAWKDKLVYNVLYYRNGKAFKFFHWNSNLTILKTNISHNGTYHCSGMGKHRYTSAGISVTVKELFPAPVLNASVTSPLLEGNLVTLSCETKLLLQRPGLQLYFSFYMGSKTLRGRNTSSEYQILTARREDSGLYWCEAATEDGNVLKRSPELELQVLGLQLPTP
# [9] = target: T1, human OX40 (TNFRSF4, CD134) on cells; assay: flow cytometry on Jurkat-NF-κB-OX40 cells, detection with PE anti-human IgG Fc, occupancy in % of the saturating dose; in the presence of 0.07 µg/ml OX40L; time point not stated on the sheet
# [10] = target: T1, human OX40 (TNFRSF4, CD134) on cells; assay: cell-based or functional assay; remark: listed apart in the source
# [11] = target: T1, human OX40 (TNFRSF4, CD134) on cells; assay: cell-based or functional assay; remark: listed apart in the source
# [12] = target: T1, human OX40 (TNFRSF4, CD134) on cells; assay: flow cytometry on Jurkat-NF-κB-OX40 cells, detection with PE anti-human IgG Fc, occupancy in % of the saturating dose; no OX40L; time point (0 h or 5 h) not stated on the sheet
# [13] = target: T1, human OX40 (TNFRSF4, CD134) on cells; assay: cell-based or functional assay; remark: listed apart in the source
# [14] = target: T1, human OX40 (TNFRSF4, CD134) on cells; assay: cell-based or functional assay; remark: listed apart in the source
# [15] = target: T1, human OX40 (TNFRSF4, CD134) on cells; assay: flow cytometry on Jurkat-NF-κB-OX40 cells, detection with PE anti-human IgG Fc, occupancy in % of the saturating dose; in the presence of 0.3 µg/ml OX40L; time point not stated on the sheet
# [16] = target: T8, Human FcRn protein (Acro Biosystems, catalog NO: FCN-H52W7) (human, UniProt P55899 24-297; P61769 21-119); assay: SPR Biacore 8K+, antibody immobilised, FcRn analyte, pH 6.0; pH 6.0
# T8 construct: also called huFcRn
# T8 sequence (P55899 24-297 limits assumed, chain 1 of 2): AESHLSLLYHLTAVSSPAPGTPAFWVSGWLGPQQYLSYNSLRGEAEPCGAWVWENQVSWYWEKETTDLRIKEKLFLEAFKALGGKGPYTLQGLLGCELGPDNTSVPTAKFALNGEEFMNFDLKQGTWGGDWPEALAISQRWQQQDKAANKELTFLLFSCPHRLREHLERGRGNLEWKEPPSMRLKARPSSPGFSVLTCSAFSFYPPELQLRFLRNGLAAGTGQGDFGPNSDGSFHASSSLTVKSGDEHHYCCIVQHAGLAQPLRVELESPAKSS
# T8 sequence (P61769 21-119 limits assumed, chain 2 of 2): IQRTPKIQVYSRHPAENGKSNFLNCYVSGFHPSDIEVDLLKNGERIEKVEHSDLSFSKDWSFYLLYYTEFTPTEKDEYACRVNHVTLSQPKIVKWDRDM
binder,measurement,setting,value
"MAB10 (antibody, human IgG1, kappa, MAB1 with M252Y, S254T and T256E (EU numbering) in the IgG1 Fc; also called MAB1 Heavy Chain + YTE) heavy: QVTLKESGPALVKPTQTLTLTCSFSGFSLSTSGMGVGWIRQPPGKALEWIAHIWWDDDKYYNTALKTRLTISKDTSKNQVVLTMTNMDPVDTATYYCARIDWDGFAYWGQGTLVTVSSASTKGPSVFPLAPSSKSTSGGTAALGCLVKDYFPEPVTVSWNSGALTSGVHTFPAVLQSSGLYSLSSVVTVPSSSLGTQTYICNVNHKPSNTKVDKKVEPKSCDKTHTCPPCPAPELLGGPSVFLFPPKPKDTLYITREPEVTCVVVDVSHEDPEVKFNWYVDGVEVHNAKTKPREEQYNSTYRVVSVLTVLHQDWLNGKEYKCKVSNKALPAPIEKTISKAKGQPREPQVYTLPPSRDELTKNQVSLTCLVKGFYPSDIAVEWESNGQPENNYKTTPPVLDSDGSFFLYSKLTVDKSRWQQGNVFSCSVMHEALHNHYTQKSLSLSPGK light: EIVLTQSPATLSLSPGERATLSCRASSSVSYMHWYQQKPGQAPRPWIYATSNRATGIPARFSGSGSGTDYTLTISSLEPEDFAVYYCQQFGAWPWTFGQGTKVEIKRTVAAPSVFIFPPSDEQLKSGTASVVCLLNNFYPREAKVQWKVDNALQSGNSQESVTEQDSKDSTYSLSSTLTLSKADYEKHKVYACEVTHQGLSSPVTKSFNRGEC","Maximum killing (%), ADCC, regulatory T cells",[1],27.3%
same,binding result,[2],"no binding (tested: 5,000 nM highest antibody concentration)"
same,Kd,[3],816 nM
same,Kd,[4],12.7 µM
same,Kd,[5],15.6 µM
same,Kd,[6],992 nM
same,binding result,[7],"no binding (tested: 5,000 nM highest antibody concentration)"
same,Kd,[8],8.7 nM
same,EC50 (read off the curve),[9],~0.3 nM
same,"Maximum killing (%), ADCC, activated T cells",[10],34.9%
same,"ADCC EC50, activated T cells (LDH release)",[11],0.1 nM
same,EC50 (read off the curve),[12],~0.3 nM
same,"EC50, inhibition of IFNγ release",[13],11.8 nM
same,"EC50, inhibition of IL-2 release",[13],2.63 nM
same,"EC50, inhibition of IL-4 release",[13],2.88 nM
same,"EC50, inhibition of IL-5 release",[13],16.4 nM
same,"EC50, inhibition of IL-8 release",[13],9.55 nM
same,"EC50, inhibition of IL-10 release",[13],34.1 nM
same,"EC50, inhibition of IL-13 release",[13],5.3 nM
same,"EC50, inhibition of IL-17a release",[13],23.5 nM
same,"EC50, inhibition of IL-21 release",[13],2.75 nM
same,"EC50, inhibition of IL-22 release",[13],7.03 nM
same,"EC50, inhibition of IL-31 release",[13],2 nM
same,"EC50, inhibition of TNF-α release",[13],4.2 nM
same,"Fold diff to GBR830, IFNγ",[13],5.7 fold
same,"Fold diff to GBR830, IL-2",[13],3 fold
same,"Fold diff to GBR830, IL-4",[13],15.5 fold
same,"Fold diff to GBR830, IL-5",[13],3.9 fold
same,"Fold diff to GBR830, IL-8",[13],6.1 fold
same,"Fold diff to GBR830, IL-10",[13],2 fold
same,"Fold diff to GBR830, IL-13",[13],13.1 fold
same,"Fold diff to GBR830, IL-21",[13],17.2 fold
same,"Fold diff to GBR830, IL-31",[13],14.9 fold
same,"Fold diff to GBR830, TNF-α",[13],10.3 fold
same,"ADCC EC50, regulatory T cells (LDH release)",[14],2.31 nM
same,EC50 (read off the curve),[15],~0.4 nM
same,Kd,[16],11.5 nM

# — US20250353921A1 (ASTRIA THERAPEUTICS, published 2025)
